Test results from PMC8563995, “CCA-addition in the cold: Structural characterization of the psychrophilic CCA-adding enzyme from the permafrost bacterium Planococcus halocryophilus” (Computational and Structural Biotechnology Journal, 2021).

Tested on: GstCCA (CCA-adding enzyme, tRNA nucleotidyltransferase) (Geobacillus stearothermophilus)
Test: EMSA
Conditions: 10 mM MgCl2; 37 °C; EMSA: 50 mM glycine/NaOH pH 8.5, 10 mM MgCl2, 2 mM DTT, 0.3 pmol tRNA, 0-5 µM enzyme, 10 min at 37 °C (GstCCA) or 4 °C and 30 °C (PhaCCA); 5% native PAGE at …

yeast tRNAPhe lacking the CCA terminus
Kd: 1300 nM
